Measured values published in US20210388087A1 (Chugai, published 2021).
Substitutions are numbered along the chain they refer to.

B1: GLS3000 L27bF (antibody, name in Kabat numbering, V domains shown)
VH: QVQLVESGGGVVQPGRSLRLSCAASGFTFSNAWMHWVRQAPGKGLEWVAQIKAKSNNYATYYAESVKGRFTISRDDSKNSLYLQMNSLKTEDTAVYYCRYVHYGAYYGVDAWGQGTTVTVSS
VL: DIVMTQSPLSLPVTPGEPASISCRSSQSFVHSNRNTYLHWYQQKPGQAPRLLIYKVSNRFSGVPDRFSGSGSGTDFTLKISRVEAEDVGVYYCGQGTQVPYTFGQGTKLEIK
notes: one-arm IgG as m2
B2: GLS3000 N30F (antibody, name in Kabat numbering, V domains shown)
VH: B1 VH
VL: B1 VL with F29L, N35F
notes: one-arm IgG as m2
B3: GLS3000 N30K (antibody, name in Kabat numbering, V domains shown)
VH: B1 VH
VL: B1 VL with F29L, N35K
notes: one-arm IgG as m2
B4: GLS3000 N28D (antibody, name in Kabat numbering, V domains shown)
VH: B1 VH
VL: B1 VL with F29L, N33D
notes: one-arm IgG as m2
B5: GLS3000 N30D (antibody, name in Kabat numbering, V domains shown)
VH: B1 VH
VL: B1 VL with F29L, N35D
notes: one-arm IgG as m2
B6: GLS3000 N28M (antibody, name in Kabat numbering, V domains shown)
VH: B1 VH
VL: B1 VL with F29L, N33M
notes: one-arm IgG as m2
B7: GLS3000 N30I (antibody, name in Kabat numbering, V domains shown)
VH: B1 VH
VL: B1 VL with F29L, N35I
notes: one-arm IgG as m2
B8: GLS3000 L33I (antibody, name in Kabat numbering, V domains shown)
VH: B1 VH
VL: B1 VL with F29L, L38I
notes: one-arm IgG as m2
B9: GLS3000 N28H (antibody, name in Kabat numbering, V domains shown)
VH: B1 VH
VL: B1 VL with F29L, N33H
notes: one-arm IgG as m2
B10: GLS3000 L27bP (antibody, name in Kabat numbering, V domains shown)
VH: B1 VH
VL: B1 VL with F29P
notes: one-arm IgG as m2
B11: GLS3000 N30M (antibody, name in Kabat numbering, V domains shown)
VH: B1 VH
VL: B1 VL with F29L, N35M
notes: one-arm IgG as m2
B12: GLS3000 N28Y (antibody, name in Kabat numbering, V domains shown)
VH: B1 VH
VL: B1 VL with F29L, N33Y
notes: one-arm IgG as m2
B13: GLS3000 N28P (antibody, name in Kabat numbering, V domains shown)
VH: B1 VH
VL: B1 VL with F29L, N33P
notes: one-arm IgG as m2
B14: GLS3000 N30A (antibody, name in Kabat numbering, V domains shown)
VH: B1 VH
VL: B1 VL with F29L, N35A
notes: one-arm IgG as m2
B15: GLS3000 L33M (antibody, name in Kabat numbering, V domains shown)
VH: B1 VH
VL: B1 VL with F29L, L38M
notes: one-arm IgG as m2
B16: GLS3000 N28T (antibody, name in Kabat numbering, V domains shown)
VH: B1 VH
VL: B1 VL with F29L, N33T
notes: one-arm IgG as m2
B17: GLS3000 N28G (antibody, name in Kabat numbering, V domains shown)
VH: B1 VH
VL: B1 VL with F29L, N33G
notes: one-arm IgG as m2
B18: GLS3000 N28Q (antibody, name in Kabat numbering, V domains shown)
VH: B1 VH
VL: B1 VL with F29L, N33Q
notes: one-arm IgG as m2
B19: GLS3000 N30G (antibody, name in Kabat numbering, V domains shown)
VH: B1 VH
VL: B1 VL with F29L, N35G
notes: one-arm IgG as m2
B20: GLS3000 N30E (antibody, name in Kabat numbering, V domains shown)
VH: B1 VH
VL: B1 VL with F29L, N35E
notes: one-arm IgG as m2
B21: GLS3000 L27bS (antibody, name in Kabat numbering, V domains shown)
VH: B1 VH
VL: B1 VL with F29S
notes: one-arm IgG as m2
B22: GLS3000 L27bY (antibody, name in Kabat numbering, V domains shown)
VH: B1 VH
VL: B1 VL with F29Y
notes: one-arm IgG as m2
B23: GLS3000 L33E (antibody, name in Kabat numbering, V domains shown)
VH: B1 VH
VL: B1 VL with F29L, L38E
notes: one-arm IgG as m2
B24: GLS3000 N28I (antibody, name in Kabat numbering, V domains shown)
VH: B1 VH
VL: B1 VL with F29L, N33I
notes: one-arm IgG as m2
B25: GLS3000 L33V (antibody, name in Kabat numbering, V domains shown)
VH: B1 VH
VL: B1 VL with F29L, L38V
notes: one-arm IgG as m2
B26: GLS3000 N28V (antibody, name in Kabat numbering, V domains shown)
VH: B1 VH
VL: B1 VL with F29L, N33V
notes: one-arm IgG as m2
B27: GLS3000 L33A (antibody, name in Kabat numbering, V domains shown)
VH: B1 VH
VL: B1 VL with F29L, L38A
notes: one-arm IgG as m2
B28: GLS3000 N30L (antibody, name in Kabat numbering, V domains shown)
VH: B1 VH
VL: B1 VL with F29L, N35L
notes: one-arm IgG as m2
B29: GLS3000 N28K (antibody, name in Kabat numbering, V domains shown)
VH: B1 VH
VL: B1 VL with F29L, N33K
notes: one-arm IgG as m2
B30: GLS3000 L33P (antibody, name in Kabat numbering, V domains shown)
VH: B1 VH
VL: B1 VL with F29L, L38P
notes: one-arm IgG as m2
B31: GLS3000 L33F (antibody, name in Kabat numbering, V domains shown)
VH: B1 VH
VL: B1 VL with F29L, L38F
notes: one-arm IgG as m2
B32: GLS3000 N28A (antibody, name in Kabat numbering, V domains shown)
VH: B1 VH
VL: B1 VL with F29L, N33A
notes: one-arm IgG as m2
B33: GLS3000 L27bV (antibody, name in Kabat numbering, V domains shown)
VH: B1 VH
VL: B1 VL with F29V
notes: one-arm IgG as m2
B34: GLS3000 N28L (antibody, name in Kabat numbering, V domains shown)
VH: B1 VH
VL: B1 VL with F29L, N33L
notes: one-arm IgG as m2
B35: GLS3000 N28W (antibody, name in Kabat numbering, V domains shown)
VH: B1 VH
VL: B1 VL with F29L, N33W
notes: one-arm IgG as m2
B36: GLS3000 N28E (antibody, name in Kabat numbering, V domains shown)
VH: B1 VH
VL: B1 VL with F29L, N33E
notes: one-arm IgG as m2
B37: GLS3000 N30H (antibody, name in Kabat numbering, V domains shown)
VH: B1 VH
VL: B1 VL with F29L, N35H
notes: one-arm IgG as m2
B38: GLS3000 N28F (antibody, name in Kabat numbering, V domains shown)
VH: B1 VH
VL: B1 VL with F29L, N33F
notes: one-arm IgG as m2
B39: GLS3000 N28S (antibody, name in Kabat numbering, V domains shown)
VH: B1 VH
VL: B1 VL with F29L, N33S
notes: one-arm IgG as m2
B40: GLS3000 L27bM (antibody, name in Kabat numbering, V domains shown)
VH: B1 VH
VL: B1 VL with F29M
notes: one-arm IgG as m2
B41: GLS3000 L27bW (antibody, name in Kabat numbering, V domains shown)
VH: B1 VH
VL: B1 VL with F29W
notes: one-arm IgG as m2
B42: GLS3000 L33D (antibody, name in Kabat numbering, V domains shown)
VH: B1 VH
VL: B1 VL with F29L, L38D
notes: one-arm IgG as m2
B43: GLS3000 L27bI (antibody, name in Kabat numbering, V domains shown)
VH: B1 VH
VL: B1 VL with F29I
notes: one-arm IgG as m2

What follows are binders tested against T1, CD3 epsilon homodimer protein (UniProt P07766 23-126) (assay: SPR Biacore T200, CD3e homodimer on chip, vs unaltered GLS3000 antibody).
T1 construct: also called CD3 (CD3 epsilon)
T1 sequence (P07766 23-126): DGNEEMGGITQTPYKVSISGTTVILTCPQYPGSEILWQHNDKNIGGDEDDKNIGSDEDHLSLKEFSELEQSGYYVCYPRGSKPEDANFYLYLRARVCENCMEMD
B1 was tested, and the “ratio of amounts bound (Z=Y/X)” value was 0.42. In the case of B2, the “ratio of amounts bound (Z=Y/X)” value is reported as 1.1. With B3 the “ratio of amounts bound (Z=Y/X)” value was 1.65. For B4, the “ratio of amounts bound (Z=Y/X)” value was 0.19. With B5 the “ratio of amounts bound (Z=Y/X)” value was 0.34. B6 was tested, and the “ratio of amounts bound (Z=Y/X)” value was 0.39. With B7 the “ratio of amounts bound (Z=Y/X)” value was 0.61. For B8, the “ratio of amounts bound (Z=Y/X)” value was 0.83. In the case of B9, the “ratio of amounts bound (Z=Y/X)” value is reported as 0.42. B10 was tested, and the “ratio of amounts bound (Z=Y/X)” value was 0.91. With B11 the “ratio of amounts bound (Z=Y/X)” value was 0.8. B12 was tested, and the “ratio of amounts bound (Z=Y/X)” value was 0.26. For B13, the “ratio of amounts bound (Z=Y/X)” value was 0.36. In the case of B14, the “ratio of amounts bound (Z=Y/X)” value is reported as 0.5. With B15 the “ratio of amounts bound (Z=Y/X)” value was 0.93. For B16, the “ratio of amounts bound (Z=Y/X)” value was 0.45. With B17 the “ratio of amounts bound (Z=Y/X)” value was 0.46. B18 was tested, and the “ratio of amounts bound (Z=Y/X)” value was 0.37. For B19, the “ratio of amounts bound (Z=Y/X)” value was 0.47. For B20, the “ratio of amounts bound (Z=Y/X)” value was 0.44. In the case of B21, the “ratio of amounts bound (Z=Y/X)” value is reported as 0.71. For B22, the “ratio of amounts bound (Z=Y/X)” value was 0.25. B23 was tested, and the “ratio of amounts bound (Z=Y/X)” value was 0.72. B24 was tested, and the “ratio of amounts bound (Z=Y/X)” value was 0.44. B25 was tested, and the “ratio of amounts bound (Z=Y/X)” value was 1.05. In the case of B26, the “ratio of amounts bound (Z=Y/X)” value is reported as 0.36. B27 was tested, and the “ratio of amounts bound (Z=Y/X)” value was 0.85. With B28 the “ratio of amounts bound (Z=Y/X)” value was 0.7. With B29 the “ratio of amounts bound (Z=Y/X)” value was 0.44. For B30, the “ratio of amounts bound (Z=Y/X)” value was 0.3. With B31 the “ratio of amounts bound (Z=Y/X)” value was 0.78. B32 was tested, and the “ratio of amounts bound (Z=Y/X)” value was 0.25. For B33, the “ratio of amounts bound (Z=Y/X)” value was 1.12. In the case of B34, the “ratio of amounts bound (Z=Y/X)” value is reported as 0.39. For B35, the “ratio of amounts bound (Z=Y/X)” value was 0.41. For B36, the “ratio of amounts bound (Z=Y/X)” value was 0.4. In the case of B37, the “ratio of amounts bound (Z=Y/X)” value is reported as 0.98. B38 was tested, and the “ratio of amounts bound (Z=Y/X)” value was 0.46. In the case of B39, the “ratio of amounts bound (Z=Y/X)” value is reported as 0.32. B40 was tested, and the “ratio of amounts bound (Z=Y/X)” value was 0.71. With B41 the “ratio of amounts bound (Z=Y/X)” value was 0.26. For B42, the “ratio of amounts bound (Z=Y/X)” value was 0.17. B43 was tested, and the “ratio of amounts bound (Z=Y/X)” value was 1.19.
